The values below come from patent US20250368745A1 (published 2025).

First the molecules themselves.
T1: human IL-18BP (human, UniProt O95998 31-194)
T1 construct: UniProt printed as 095998; also called hIL-18BP
T1 sequence: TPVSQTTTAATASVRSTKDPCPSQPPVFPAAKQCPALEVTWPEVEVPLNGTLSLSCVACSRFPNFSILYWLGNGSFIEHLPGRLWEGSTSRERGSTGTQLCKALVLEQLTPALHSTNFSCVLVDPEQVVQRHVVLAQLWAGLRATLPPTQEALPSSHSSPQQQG

T2: cynomolgus IL-18BP (cynomolgus monkey)
T2 construct: also called cyno IL-18BP; cyIL-18BP
T2 chain: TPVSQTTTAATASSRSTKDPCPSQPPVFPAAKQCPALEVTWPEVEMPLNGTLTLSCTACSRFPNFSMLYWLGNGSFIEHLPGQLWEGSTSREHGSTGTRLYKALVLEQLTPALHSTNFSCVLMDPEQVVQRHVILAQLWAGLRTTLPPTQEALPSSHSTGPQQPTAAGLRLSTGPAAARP

B1: SA301a HC-I99Y (antibody, name in Kabat numbering, V domains shown)
VH: QVQLQESGPGLVKPSQTLSLTCTVSGYSITSDYNSHWIRQPPGKGLEWIGYIHYSGSTNYNPSLKSRVTISRDTSKNQFSLKLSSVTAADTAVYYCARNYGSYYVNYFDYWGQGTLVTVSS
VL: EIVLTQSPATLSLSPGERATLSCSASSSVSYMYWYQQKPGQAPRPLIYRTSNLASGIPARFSGSGSGTDFTLTISSLEPEDFAVYYCQQYHSYPTFGGGTKVEIK
notes: IgG1 kappa
B2: SA301a HC-V100aG (antibody, name in Kabat numbering, V domains shown)
VH: B1 VH with Y103I, V105G
VL: B1 VL
notes: IgG1 kappa
B3: SA301a HC-I99F (antibody, name in Kabat numbering, V domains shown)
VH: B1 VH with Y103F
VL: B1 VL
notes: IgG1 kappa
B4: SA301a HC-V100aP (antibody, name in Kabat numbering, V domains shown)
VH: B1 VH with Y103I, V105P
VL: B1 VL
notes: IgG1 kappa
B5: SA301a HC-I99S (antibody, name in Kabat numbering, V domains shown)
VH: B1 VH with Y103S
VL: B1 VL
notes: IgG1 kappa
B6: SA301a HC-I99H (antibody, name in Kabat numbering, V domains shown)
VH: B1 VH with Y103H
VL: B1 VL
notes: IgG1 kappa
B7: SA301a HC-I99M (antibody, name in Kabat numbering, V domains shown)
VH: B1 VH with Y103M
VL: B1 VL
notes: IgG1 kappa
B8: SA301a HC-N100bE (antibody, name in Kabat numbering, V domains shown)
VH: B1 VH with Y103I, N106E
VL: B1 VL
notes: IgG1 kappa
B9: SA301a HC-N100bS (antibody, name in Kabat numbering, V domains shown)
VH: B1 VH with Y103I, N106S
VL: B1 VL
notes: IgG1 kappa
B10: SA301a HC-I99V (antibody, name in Kabat numbering, V domains shown)
VH: B1 VH with Y103V
VL: B1 VL
notes: IgG1 kappa
B11: SA301a HC-V100aL (antibody, name in Kabat numbering, V domains shown)
VH: B1 VH with Y103I, V105L
VL: B1 VL
notes: IgG1 kappa
B12: SA301a HC-N100bD (antibody, name in Kabat numbering, V domains shown)
VH: B1 VH with Y103I, N106D
VL: B1 VL
notes: IgG1 kappa
B13: SA301a HC-V100aS (antibody, name in Kabat numbering, V domains shown)
VH: B1 VH with Y103I, V105S
VL: B1 VL
notes: IgG1 kappa
B14: SA301a HC-V100aT (antibody, name in Kabat numbering, V domains shown)
VH: B1 VH with Y103I, V105T
VL: B1 VL
notes: IgG1 kappa
B15: SA301a HC-N100bV (antibody, name in Kabat numbering, V domains shown)
VH: B1 VH with Y103I, N106V
VL: B1 VL
notes: IgG1 kappa
B16: SA301a HC-V100aA (antibody, name in Kabat numbering, V domains shown)
VH: B1 VH with Y103I, V105A
VL: B1 VL
notes: IgG1 kappa
B17: SA301a HC-I99G (antibody, name in Kabat numbering, V domains shown)
VH: B1 VH with Y103G
VL: B1 VL
notes: IgG1 kappa
B18: SA301a HC-I99R (antibody, name in Kabat numbering, V domains shown)
VH: B1 VH with Y103R
VL: B1 VL
notes: IgG1 kappa
B19: SA301a HC-V100aD (antibody, name in Kabat numbering, V domains shown)
VH: B1 VH with Y103I, V105D
VL: B1 VL
notes: IgG1 kappa
B20: SA301a HC-V100aM (antibody, name in Kabat numbering, V domains shown)
VH: B1 VH with Y103I, V105M
VL: B1 VL
notes: IgG1 kappa
B21: SA301a HC-N100bH (antibody, name in Kabat numbering, V domains shown)
VH: B1 VH with Y103I, N106H
VL: B1 VL
notes: IgG1 kappa
B22: SA301a HC-V100aQ (antibody, name in Kabat numbering, V domains shown)
VH: B1 VH with Y103I, V105Q
VL: B1 VL
notes: IgG1 kappa
B23: SA301a HC-I99N (antibody, name in Kabat numbering, V domains shown)
VH: B1 VH with Y103N
VL: B1 VL
notes: IgG1 kappa
B24: SA301a HC-V100aE (antibody, name in Kabat numbering, V domains shown)
VH: B1 VH with Y103I, V105E
VL: B1 VL
notes: IgG1 kappa
B25: SA301a HC-I99Q (antibody, name in Kabat numbering, V domains shown)
VH: B1 VH with Y103Q
VL: B1 VL
notes: IgG1 kappa
B26: SA301a HC-V100aI (antibody, name in Kabat numbering, V domains shown)
VH: B1 VH with Y103I, V105I
VL: B1 VL
notes: IgG1 kappa
B27: SA301a HC-V100aH (antibody, name in Kabat numbering, V domains shown)
VH: B1 VH with Y103I, V105H
VL: B1 VL
notes: IgG1 kappa
B28: SA301a HC-V100aN (antibody, name in Kabat numbering, V domains shown)
VH: B1 VH with Y103I, V105N
VL: B1 VL
notes: IgG1 kappa

Residue numbers refer to the chain shown, from its start.

One assay deals with T1, human IL-18BP. Description: BLI, apparent KD. Background: BLI is a label-free optical method that tracks binding on a fibre tip over time.
As to B1, the Kd was determined as 480 pM.
As for B2, the Kd worked out at 550 pM.
For the molecule B3, the Kd was determined as 640 pM.
Turning to B4, the Kd worked out at 490 pM.
Regarding B5, the Kd amounted to 560 pM.
As for B6, the Kd is 610 pM.
As to B7, the Kd stood at 210 pM.
With B8, the Kd is 310 pM.
Turning to B9, the Kd is 490 pM.
For B10, the Kd worked out at 50 pM.
Still for that read-out and setting: the result for B11 reads 2540 pM; that for B12, 2300 pM.
For the molecule B13, the Kd was determined as 280 pM.
On to B14, for which the Kd was 270 pM.
For the molecule B15, the Kd was found to be 2160 pM.
In the case of B16, the Kd turned out to be 470 pM.
On the same count and under the same terms, the result for B17 reads 1040 pM.
For the molecule B18, the Kd worked out at 460 pM.
On to B19, for which the Kd was 4990 pM.
On the same count and under the same terms, the result for B20 reads 800 pM.
For the molecule B21, the Kd is 690 pM.
B22: the Kd is 450 pM.
Still for that read-out and setting: to B23 belongs 550 pM; to B24, 510 pM.
As for B25, the Kd worked out at 250 pM.
The same measure, in the same setting: to B26 belongs 90 pM; to B27, 410 pM; to B28, 680 pM.

For a further assay, the target named is T2, cynomolgus IL-18BP. Nature of the assay: BLI, apparent KD.
As to B1, the Kd came to 450 pM.
Regarding B2, the Kd came to 920 pM.
Consider B3, for which the Kd is 970 pM.
For B4, the Kd came out at 150 pM.
Turning to B5, the Kd is 530 pM.
Still for that read-out and setting: to B6 belongs 830 pM.
As to B7, the Kd came out at 370 pM.
The same measure, in the same setting: to B8 belongs 910 pM.
On to B9, for which the Kd was found to be 90 pM.
Regarding B10, the Kd worked out at 330 pM.
In the case of B11, the Kd was 810 pM.
Turning to B12, the Kd was 960 pM.
With B13, the Kd was found to be 530 pM.
Regarding B14, the Kd worked out at 60 pM.
Consider B15, for which the Kd is 1160 pM.
With B16, the Kd was found to be 150 pM.
Still for that read-out and setting: to B17 belongs 670 pM; to B18, 690 pM; to B19, 360 pM.
Same read-out and setting: the result for B20 reads 220 pM; that for B21, 1030 pM.
Still for that read-out and setting: the result for B22 reads 100 pM; that for B23, 660 pM.
For the molecule B24, the Kd was found to be 220 pM.
As to B25, the Kd stood at 440 pM.
For B26, the Kd is 250 pM.
Turning to B27, the Kd turned out to be 60 pM.
Take B28: the Kd came to 110 pM.
